Changes are numbered by the printed parent chain.
B1: mAb1a (antibody, human IgG1, kappa, V domains shown)
VH: QVQLVQSGAEVKKPGASVKVSCKASGYIFTDYFMNWVRQACGQGLEWMGRVNPKNGDITYNQKFRGRVSLTKDTSINTAYMELSGLTSDDTAIYYCAYDGYYDGMDFWGQGTSVTVSS
VL: ELVMTQSPSSLSASVGDRVTITCRANSSVSSNFLHWYQQKPGKAPKLLISSTSNLAFGVPSRFSGTGSGTDFSLTISSLQPEDFAIYYCHQYSGHPFTFGQGTKLEIKR
notes: Humanized IgG1 kappa, HC-41C, from wt/41C-chi-mAb1; also called humanized HC-41C antibody mAb1a; mAbla
B2: mAb3c (antibody, human IgG1, kappa, V domains shown)
VH: QVQLVQSGAEVKKPGASVKVSCKASGYTFTDYYLNWVRQACGQGLEWMGLIFPGNDKTEYSEKFKGRVTLTTDTSISTAYMELSSLTSDDTALYYCSGGDYGGFVYWGQGTLVTVSS
VL: DIQMTQSPSSLSASVGDRVTITCGASENIYGALNWYQQKPGKAPKLLIYGATNLADGVPSRFSGSGSGTDFTLTISSLQPEDVATYYCQNVLSSPLTFGSGTKLEIKR
notes: Humanized IgG1 kappa, HC-41C, from wt/41C-chi-mAb3; also called humanized HC-41C antibody mAb3c
B3: mAb3d (antibody, human IgG1, kappa, V domains shown)
VH: B2 VH with V5Q, Q6E, L70M, T72R, I76T, A79V, T87R, D89E, L93V
VL: B2 VL with M4L, V83F, S100P, L104V, E105D
notes: Humanized IgG1 kappa, HC-41C, from wt/41C-chi-mAb3; also called humanized HC-41C antibody mAb3d
B4: mAb3a (antibody, human IgG1, kappa, V domains shown)
VH: B2 VH
VL: B2 VL with M4L, V83F, S100P, L104V, E105D
notes: Humanized IgG1 kappa, HC-41C, from wt/41C-chi-mAb3; also called humanized HC-41C antibody mAb3a
B5: mAb3e (antibody, human IgG1, kappa, V domains shown)
VH: B2 VH with V5Q, Q6E, L70M, T72R, I76T, A79V, T87R, D89E, L93V
VL: B2 VL
notes: Humanized IgG1 kappa, HC-41C, from wt/41C-chi-mAb3; also called humanized HC-41C antibody mAb3e
B6: mAb2c (antibody, human IgG1, kappa, V domains shown)
VH: QVQLVQSGAEVKKPGSSVKVSCKASGYVFPDYEMHWVRQACGQGLEWMGAFDPETGDTTYNQNFKGRVTITADKSTSTAYMELSSLRSEDTAVYYCARDYKYLYYYAMDNWGQGTTVTVSS
VL: EIVLTQSPSLLSASIGDRVTIPCTASSSITSSYLHWYQQKPGKAPKLLIYSTTNLASGVPSRFSGSGSGTEFTLTISSLQPEDFATYYCHQYRRSPLTFGGGTKLEIKR
notes: Humanized IgG1 kappa, HC-41C, from wt/41C-chi-mAb2; also called humanized HC-41C antibody mAb2c
B7: mAb2a (antibody, human IgG1, kappa, V domains shown)
VH: B6 VH with V11L, K12R, K23R, T71A, S84R, V93I, T116M
VL: B6 VL
notes: Humanized IgG1 kappa, HC-41C, from wt/41C-chi-mAb2; also called humanized HC-41C antibody mAb2a
B8: mAb2b (antibody, human IgG1, kappa, V domains shown)
VH: B6 VH
VL: B6 VL with E1D, V3Q, L4M, L10S, I15V, P22T, E71D
notes: Humanized IgG1 kappa, HC-41C, from wt/41C-chi-mAb2; also called humanized HC-41C antibody mAb2b

target: human c-Met (HGFR), full length, on the cell surface (human) (UniProt P08581); experiment: cell-based or functional assay
Sequence (P08581 25-1390 limits assumed): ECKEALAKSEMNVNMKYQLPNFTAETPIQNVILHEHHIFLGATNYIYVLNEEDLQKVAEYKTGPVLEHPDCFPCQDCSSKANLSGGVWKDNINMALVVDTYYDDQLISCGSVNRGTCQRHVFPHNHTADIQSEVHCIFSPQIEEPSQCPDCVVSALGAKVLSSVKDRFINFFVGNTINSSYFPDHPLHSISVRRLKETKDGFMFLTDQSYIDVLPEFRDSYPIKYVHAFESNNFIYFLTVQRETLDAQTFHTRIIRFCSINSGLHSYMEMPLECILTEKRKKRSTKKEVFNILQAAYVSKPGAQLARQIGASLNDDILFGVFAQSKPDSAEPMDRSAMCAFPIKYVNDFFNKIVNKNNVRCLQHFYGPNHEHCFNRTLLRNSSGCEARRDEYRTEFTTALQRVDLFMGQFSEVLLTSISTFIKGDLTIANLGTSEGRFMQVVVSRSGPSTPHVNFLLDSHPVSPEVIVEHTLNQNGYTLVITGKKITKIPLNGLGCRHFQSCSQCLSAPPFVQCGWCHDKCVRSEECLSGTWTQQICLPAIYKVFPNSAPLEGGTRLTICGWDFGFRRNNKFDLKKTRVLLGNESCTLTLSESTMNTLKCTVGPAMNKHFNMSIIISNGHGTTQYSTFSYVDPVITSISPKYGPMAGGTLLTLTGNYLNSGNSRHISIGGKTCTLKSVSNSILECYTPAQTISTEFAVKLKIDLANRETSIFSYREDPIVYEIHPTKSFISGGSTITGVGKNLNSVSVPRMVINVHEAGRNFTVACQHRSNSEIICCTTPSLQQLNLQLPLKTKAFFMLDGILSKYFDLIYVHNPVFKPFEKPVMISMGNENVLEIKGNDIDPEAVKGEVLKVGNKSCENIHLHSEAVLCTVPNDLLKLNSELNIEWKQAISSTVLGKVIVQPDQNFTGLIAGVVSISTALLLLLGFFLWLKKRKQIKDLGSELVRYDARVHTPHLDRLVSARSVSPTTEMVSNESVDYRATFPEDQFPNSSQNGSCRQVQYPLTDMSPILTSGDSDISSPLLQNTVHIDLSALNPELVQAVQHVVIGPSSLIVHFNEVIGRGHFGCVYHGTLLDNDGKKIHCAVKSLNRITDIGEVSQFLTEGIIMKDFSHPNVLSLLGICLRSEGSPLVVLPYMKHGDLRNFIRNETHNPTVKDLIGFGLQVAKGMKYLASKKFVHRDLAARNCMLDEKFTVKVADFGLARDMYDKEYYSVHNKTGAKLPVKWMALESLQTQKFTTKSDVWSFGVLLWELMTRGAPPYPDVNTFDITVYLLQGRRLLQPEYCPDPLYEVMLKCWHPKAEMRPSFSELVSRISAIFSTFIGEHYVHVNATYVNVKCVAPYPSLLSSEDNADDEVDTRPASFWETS

| Molecule | Efficacy (%), in vitro cytotoxicity, MKN-45, -HGF [%] | Efficacy (%), in vitro cytotoxicity, NCI-H596, +HGF [%] | Efficacy (%), in vitro cytotoxicity, NCI-H596, -HGF [%] | Efficacy (%), in vitro cytotoxicity, PC-3, +HGF [%] | Efficacy (%), in vitro cytotoxicity, PC-3, -HGF [%] | IC50, in vitro cytotoxicity, MKN-45, -HGF [nM] | IC50, in vitro cytotoxicity, NCI-H596, +HGF [nM] | IC50, in vitro cytotoxicity, NCI-H596, -HGF [nM] | IC50, in vitro cytotoxicity, PC-3, +HGF [nM] | IC50, in vitro cytotoxicity, PC-3, -HGF [nM] |
| --- | --- | --- | --- | --- | --- | --- | --- | --- | --- | --- |
| non-binding control ADC (rituximab-vc-seco-DUBA) (antibody) | 0 | 18 | 7 | 36 | 36 | > 10 | > 10 | > 10 | > 10 | > 10 |

target: T1, human c-Met (HGFR), full length, on the cell surface (human, UniProt P08581 25-1390); experiment: flow cytometry, PC-3 cells, without HGF
T1 construct: Endogenous c-Met on human tumor cell lines MKN45, NCI-H596, PC-3 and HepG2; also called hepatocyte growth factor receptor; mesenchymal-epithelial transition factor
Experimental: (§1) Cellular binding of the in total 75 humanized anti-c-Met antibodies (originating from the three selected chimeric antibodies) was studied in human c-Met-positive tumor cell lines MKN45, NCI-H596 and PC-3, rhesus c-Met-positive tumor cell line 4 MBr-5, and human c-Met-negative tumor cell line MDA-MB-175-VII. Cells were used around 90% of confluence at the time of an assay, detached with Trypsin-Versene (EDTA) (Lonza) for 5-10 minutes, washed and adjusted to a concentration of 1×10⁶ cells/mL in ice-cold FACS buffer (PBS 1×, 0.1% v/w BSA, 0.02% v/v sodium azide (NaN₃)). Staining was performed in 96-well round-bottomed microtiter plates using ice-cold reagents/solutions at 4° C. to prevent the modulation and internalization of surface antigens. 100,000 cells/well were added to 96-well plates (100 μL/well) and centrifuged at 300×g for 3 minutes. In case of pre-incubation with HGF, the cells were resuspended in 50 ng/mL recombinant human HGF in FACS buffer (50 μL/well) and incubated for 30 minutes at 4° C., followed by two wash steps with 150 μL FACS buffer. Supernatant was discarded and cells were stained for 30 minutes with 50 μL of each antibody. Serial dilutions were made in ice-cold FACS buffer. Cells were washed twice by centrifugation at 300×g for 3 minutes and resuspended in 50 μL 6000-times diluted secondary F(ab′)₂ goat anti-human IgG (Fc fragment specific) antibody APC-conjugated (Jackson ImmunoResearch). Following a 30-minute incubation on ice, cells were washed again 2 times and resuspended in 150 μL ice-cold FACS buffer for FACS analysis. For analysis of the data, the Median Fluorescence Intensity (MFI) values were obtained.

T1 sequence (P08581 25-1390 limits assumed): as above

| Molecule | EC50 [µg/mL] |
| --- | --- |
| B1 | 0.08 |
| B2 | 0.03 |
| B3 | 0.03 |
| B4 | 0.03 |
| B5 | 0.03 |
| B6 | 0.03 |
| B7 | 0.04 |
| B8 | 0.05 |

target: T1, human c-Met (HGFR), full length, on the …; experiment: flow cytometry, MKN45 cells, without HGF
Experimental: as §1

| Molecule | EC50 [µg/mL] |
| --- | --- |
| B1 | 0.16 |
| B2 | 0.05 |
| B3 | 0.07 |
| B4 | 0.07 |
| B5 | 0.07 |
| B6 | 0.11 |
| B7 | 0.09 |
| B8 | 0.14 |

target: T2, rhesus c-Met on 4MBr-5 cells (rhesus, UniProt F7H1K4 25-1381, Natural c-Met is cleaved at the furin site (KRKKR/S) into disulphide-linked alpha and beta subunits; given here as one mature polypeptide.); experiment: flow cytometry, 4MBr-5 cells, without HGF
T2 construct: also called rhesus c-Met antigen
Experimental: as §1

T2 sequence (F7H1K4 entry or part of it limits assumed): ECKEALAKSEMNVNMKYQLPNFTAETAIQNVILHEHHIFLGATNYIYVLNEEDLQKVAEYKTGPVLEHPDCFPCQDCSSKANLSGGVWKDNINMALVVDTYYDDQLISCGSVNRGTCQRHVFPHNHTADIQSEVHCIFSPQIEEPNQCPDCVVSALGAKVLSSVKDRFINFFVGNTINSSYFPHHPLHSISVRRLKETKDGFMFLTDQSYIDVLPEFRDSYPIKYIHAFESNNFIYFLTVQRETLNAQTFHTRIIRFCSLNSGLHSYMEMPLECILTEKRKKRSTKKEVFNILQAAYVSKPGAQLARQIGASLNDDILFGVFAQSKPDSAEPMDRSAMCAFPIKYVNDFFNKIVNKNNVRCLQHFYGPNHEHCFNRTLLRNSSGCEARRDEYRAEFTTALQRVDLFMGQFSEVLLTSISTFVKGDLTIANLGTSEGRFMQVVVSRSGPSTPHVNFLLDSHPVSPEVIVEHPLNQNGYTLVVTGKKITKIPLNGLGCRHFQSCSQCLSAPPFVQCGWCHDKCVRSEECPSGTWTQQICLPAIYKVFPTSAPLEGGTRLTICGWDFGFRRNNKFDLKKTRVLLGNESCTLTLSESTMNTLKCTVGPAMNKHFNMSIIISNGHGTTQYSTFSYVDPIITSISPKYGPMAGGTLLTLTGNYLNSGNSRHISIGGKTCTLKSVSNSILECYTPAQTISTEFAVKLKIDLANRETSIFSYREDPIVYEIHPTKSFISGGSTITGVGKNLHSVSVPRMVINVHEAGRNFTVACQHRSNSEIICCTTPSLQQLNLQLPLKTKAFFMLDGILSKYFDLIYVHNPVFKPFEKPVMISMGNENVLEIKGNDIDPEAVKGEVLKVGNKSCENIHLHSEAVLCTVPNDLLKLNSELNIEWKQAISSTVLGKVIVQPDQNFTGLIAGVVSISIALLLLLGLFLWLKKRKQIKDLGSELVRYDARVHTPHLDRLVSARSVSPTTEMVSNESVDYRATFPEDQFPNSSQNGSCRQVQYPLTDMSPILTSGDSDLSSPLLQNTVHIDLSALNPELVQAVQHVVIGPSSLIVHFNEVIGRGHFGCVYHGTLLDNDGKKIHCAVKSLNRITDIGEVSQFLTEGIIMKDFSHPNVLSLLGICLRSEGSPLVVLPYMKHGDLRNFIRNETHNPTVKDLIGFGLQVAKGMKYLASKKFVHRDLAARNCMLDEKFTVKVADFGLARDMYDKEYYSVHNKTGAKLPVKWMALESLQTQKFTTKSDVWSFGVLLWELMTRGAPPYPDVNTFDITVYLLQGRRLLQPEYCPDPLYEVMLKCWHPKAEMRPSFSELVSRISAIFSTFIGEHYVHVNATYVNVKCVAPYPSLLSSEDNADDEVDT

| Molecule | EC50 [µg/mL] |
| --- | --- |
| B1 | 0.07 |
| B2 | 0.02 |
| B3 | 0.03 |
| B4 | 0.04 |
| B5 | 0.03 |
| B6 | 0.07 |
| B7 | 0.06 |
| B8 | 0.09 |

target: T1, human c-Met (HGFR), full length, on the …; experiment: flow cytometry, NCI-H596 cells, without HGF
Experimental: as §1

| Molecule | EC50 [µg/mL] |
| --- | --- |
| B1 | 0.04 |
| B2 | 0.02 |
| B3 | 0.02 |
| B4 | 0.02 |
| B5 | 0.02 |
| B6 | 0.03 |
| B7 | 0.02 |
| B8 | 0.04 |

target: T1, human c-Met (HGFR), full length, on the …; experiment: flow cytometry, PC-3 cells pre-incubated with 50 ng/mL HGF
Experimental: as §1

| Molecule | EC50 [µg/mL] |
| --- | --- |
| B1 | 0.15 |
| B2 | 0.06 |
| B3 | 0.08 |
| B4 | 0.07 |
| B5 | 0.09 |
| B6 | 0.09 |
| B7 | 0.09 |
| B8 | 0.13 |

target: T2, rhesus c-Met on 4MBr-5 cells; experiment: flow cytometry, 4MBr-5 cells pre-incubated with 50 ng/mL HGF
Experimental: as §1

| Molecule | EC50 [µg/mL] |
| --- | --- |
| B1 | 0.08 |
| B2 | 0.03 |
| B3 | 0.05 |
| B4 | 0.03 |
| B5 | 0.04 |
| B6 | 0.09 |
| B7 | 0.09 |
| B8 | 0.15 |

target: T1, human c-Met (HGFR), full length, on the …; experiment: flow cytometry, NCI-H596 cells pre-incubated with 50 ng/mL HGF
Experimental: as §1

| Molecule | EC50 [µg/mL] |
| --- | --- |
| B1 | 0.1 |
| B2 | 0.11 |
| B3 | 0.15 |
| B4 | 0.08 |
| B5 | 0.14 |
| B6 | 0.1 |
| B7 | 0.08 |
| B8 | 0.11 |

target: T1, human c-Met (HGFR), full length, on the …; experiment: flow cytometry, PC-3 cells; EC50 with 50 ng/mL HGF against EC50 without HGF
Experimental: as §1

| Molecule | Fold shift (HGF) [fold] |
| --- | --- |
| B1 | 1.9 |
| B2 | 1.9 |
| B3 | 2.7 |
| B4 | 2.4 |
| B5 | 2.8 |
| B6 | 3.1 |
| B7 | 2.3 |
| B8 | 2.6 |

target: T2, rhesus c-Met on 4MBr-5 cells; experiment: flow cytometry, 4MBr-5 cells; EC50 with 50 ng/mL HGF against EC50 without HGF
Experimental: as §1

| Molecule | Fold shift (HGF) [fold] |
| --- | --- |
| B1 | 1.1 |
| B2 | 1.7 |
| B3 | 1.6 |
| B4 | 0.8 |
| B5 | 1.4 |
| B6 | 1.2 |
| B7 | 1.4 |
| B8 | 1.7 |

target: T1, human c-Met (HGFR), full length, on the …; experiment: flow cytometry, NCI-H596 cells; EC50 with 50 ng/mL HGF against EC50 without HGF
Experimental: as §1

| Molecule | Fold shift (HGF) [fold] |
| --- | --- |
| B1 | 2.5 |
| B2 | 5.5 |
| B3 | 7.5 |
| B4 | 4 |
| B5 | 7 |
| B6 | 3.3 |
| B7 | 4 |
| B8 | 2.8 |
